Laboratory results: US20180030137A1 (ADURO BIOTECH HOLDINGS EUROPE B V, published 2018)
Values joined by “and” are separate entries in the source; they are usually repeats but may differ in a detail not shown here. Equal values may be shown once.

Legend:
[1] = target: T1, Human PD-1 (Swiss-Prot entry Q15116), full length, on cells (human, UniProt Q15116 21-288); experiment: flow cytometry, Binding (%), on anti-CD3/anti-CD28 stimulated human CD3+ T cells, donor #2
T1 construct: Full length open reading frame of hPD-1 stably expressed on CHO-K1 cells; also endogenous PD-1 on CD3/CD28-stimulated human CD3+ T cells and PD-1 on transfected Jurkat cells; also called hPD-1; hPDCD1
T1 sequence (Q15116 21-288, one chain of several): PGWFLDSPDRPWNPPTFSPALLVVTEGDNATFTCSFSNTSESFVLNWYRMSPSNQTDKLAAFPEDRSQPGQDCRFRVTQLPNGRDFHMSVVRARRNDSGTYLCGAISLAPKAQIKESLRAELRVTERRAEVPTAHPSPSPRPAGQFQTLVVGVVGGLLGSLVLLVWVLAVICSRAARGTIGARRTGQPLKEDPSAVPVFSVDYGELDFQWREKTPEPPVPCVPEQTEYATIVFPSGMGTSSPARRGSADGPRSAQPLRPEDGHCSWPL
Description: (§1) Cells were stored in liquid nitrogen and retrieved from the freezer on the day of the experiment. Since endogenous expression of hPD-1 on resting T cells is low, the thawed CD3+ T cells were stimulated with αCD3/αCD28 coated beads (Gibco) for 48 hours.

[2] = target: T1, Human PD-1 (Swiss-Prot entry Q15116), …; experiment: CELISA on CHO-K1.hPDCD1 cells; blocking of biotinylated hPD-L2 Fc
Description: Parental CHO-K1 or CHO-K1.hPDCD1 cells were seeded in tissue culture plates and incubated for 72 hours at 37° C. in culture medium. […] Cells were then washed three times with PBST followed by addition of Streptavidin-HRP conjugate on the cells, which was incubated for 1 hour at 37° C. […] Reactions were stopped with 100 al 0.5 M H₂SO₄ and absorbances were read at 450 and 610 nm. […] Calculated IC50 values represent the concentration at which half of the inhibition is observed.

[3] = target: T1, Human PD-1 (Swiss-Prot entry Q15116), …; experiment: CELISA on CHO-K1.hPDCD1 cells; blocking of biotinylated hPD-L1 Fc
Description: To further characterize these mutant hPD-1 antibodies they were tested for binding to hPD-1 in CELISA format using CHO-K1 cells (American Type Culture Collection, Manassas, Va.), stably transfected with cDNA encoding the full length open reading frame of hPDCD1 (hPD-1), subcloned into the pCI-neo vector (Promega). Parental CHO-K1 or CHO-K1.hPDCD1 cells were seeded in culture medium (DMEM-F12 (Gibco) with 10% Fetal Bovine Serum (Hyclone) and Pen/Strep (Gibco)) in tissue culture plates and incubated for 48 hours at 37° C. Subsequently culture medium was removed and cells were incubated for 1 hour at 37° C. with the mutant hPD-1 antibodies (10 μg/ml (=66 nM) and dilutions thereof). Next, cells were washed with Phosphate-Buffered Saline/0.05% Tween (PBST) and incubated for 1 hour at 37° C. with Goat-anti-human IgG-HRP (Southern Biotech). Subsequently, cells were washed 3 times with PBST and anti-hPD1 immunoreactivity was visualized with 100 al TMB Stabilized Chromagen (Invitrogen). Reactions were stopped with 100 al 0.5 M H2SO4 and absorbances were read at 450 and 610 nm. […] Blockade of hPD-L1 binding by the mutant hPD-1 antibodies was tested in CELISA format. Parental CHO-K1 or CHO-K1.hPDCD1 cells were seeded in tissue culture plates and incubated for 72 hours at 37° C. in culture medium. Subsequently culture medium was removed and cells were incubated for 1 hour with the mutant hPD-1 antibodies (10 μg/ml (=66 nM) and dilutions thereof) at 37° C. […] Cells were then washed three times with PBST followed by addition of Streptavidin-HRP conjugate on the cells, which was incubated for 1 hour at 37° C. […] Reactions were stopped with 100 al 0.5 M H2SO4 and absorbances were read at 450 and 610 nm. Calculated IC50 values in Table 12 for the blockade of hPD-L1 represent the concentration at which half of the inhibition is observed.

[4] = target: T2, Macaca fascicularis PD-1 (Swiss-Prot entry B0LAJ3), full length, on cells (Macaca fascicularis, UniProt Q15116 25-288 (human entry)); experiment: CELISA on CHO-K1 cells transiently transfected with cyno PD-1
T2 construct: Full length open reading frame transiently expressed on CHO-K1 cells; also endogenous PD-1 on CD3/CD28-stimulated cynomolgus PBMCs; No signal peptide limits are stated for the cynomolgus entry; also called cyno PD-1; cynomolgus PD-1
T2 chain: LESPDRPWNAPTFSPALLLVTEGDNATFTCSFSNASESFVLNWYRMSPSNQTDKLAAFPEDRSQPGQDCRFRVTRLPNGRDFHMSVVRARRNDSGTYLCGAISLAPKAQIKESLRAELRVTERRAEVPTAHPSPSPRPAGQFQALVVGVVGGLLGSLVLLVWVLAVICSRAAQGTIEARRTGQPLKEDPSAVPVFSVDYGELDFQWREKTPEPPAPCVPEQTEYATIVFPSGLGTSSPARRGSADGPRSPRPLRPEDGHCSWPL
Description: Parental CHO-K1 or CHO-K1.cynoPD1 cells were seeded in tissue culture plates and incubated for 48 hours at 37° C. Subsequently culture medium was removed and cells were incubated for 1 hour with purified hPD-1 antibodies (10 μg/ml (=66 nM) and dilutions thereof) at 37° C. Next, cells were washed with PBST and incubated for 1 hour at 37° C. with Goat-anti-human (Jackson Immuno Research). Subsequently, cells were washed 3 times with PBST and anti-hPD1 immunoreactivity was visualized with 100 μL TMB Stabilized Chromagen (Invitrogen). Reactions were stopped with 100 μL 0.5 M H2SO4 and absorbances were read at 450 and 610 nm.

[5] = target: T1, Human PD-1 (Swiss-Prot entry Q15116), …; experiment: flow cytometry, Binding (%), on anti-CD3/anti-CD28 stimulated human CD3+ T cells; donor #1 or #3, same marker in the legend
Description: as §1

[6] = target: T1, Human PD-1 (Swiss-Prot entry Q15116), …; experiment: CELISA on CHO-K1.hPDCD1 cells; blocking of biotinylated hPD-L1 Fc; remark: listed apart in the source
Description: To further characterize these mutant hPD-1 antibodies they were tested for binding to hPD-1 in CELISA format using CHO-K1 cells (American Type Culture Collection, Manassas, Va.), stably transfected with cDNA encoding the full length open reading frame of hPDCD1 (hPD-1), subcloned into the pCI-neo vector (Promega). Parental CHO-K1 or CHO-K1.hPDCD1 cells were seeded in culture medium (DMEM-F12 (Gibco) with 10% Fetal Bovine Serum (Hyclone) and Pen/Strep (Gibco)) in tissue culture plates and incubated for 48 hours at 37° C. Subsequently culture medium was removed and cells were incubated for 1 hour at 37° C. with the mutant hPD-1 antibodies (10 μg/ml (=66 nM) and dilutions thereof). Next, cells were washed with Phosphate-Buffered Saline/0.05% Tween (PBST) and incubated for 1 hour at 37° C. with Goat-anti-human IgG-HRP (Southern Biotech). Subsequently, cells were washed 3 times with PBST and anti-hPD1 immunoreactivity was visualized with 100 al TMB Stabilized Chromagen (Invitrogen). Reactions were stopped with 100 al 0.5 M H2SO4 and absorbances were read at 450 and 610 nm. […] Blockade of hPD-L1 binding by the mutant hPD-1 antibodies was tested in CELISA format. […] Reactions were stopped with 100 al 0.5 M H2SO4 and absorbances were read at 450 and 610 nm. Calculated IC50 values in Table 12 for the blockade of hPD-L1 represent the concentration at which half of the inhibition is observed.

B1: hPD1.29H5L4 (antibody, V domains shown)
VH: EVQLVQSGAEVKKPGASVKVSCKASGYIFTTYYIHWVKQAPGKGLEWIGWIFPGDVSTQYNEKFQDKATITVDKSASTAYMQLSSLRSEDTAVYYCTREAYDYAVYWGQGTLVTVSS
VL: DIQMTQAPSSLSASVGDRVTITCKASQNVDTNVAWFQQKPGKAPKSLIFSASYRYSGVPSRFSGSGSGTDFTLTISSLQPEDFATYYCQQYNNYPFTFGGGTKLEIK
notes: Expressed as human IgG4, kappa with the stabilizing S241P (Kabat) hinge mutation in HEK293 cells; also called humanized PD-1 antibody hPD1.29H5L4
**Q.** With B1 as the binder, how does the “EC50 (read off the curve)” value [1] read?
**A.** The value was ~0.2 nM.

**Q.** And the IC50 [2]?
**A.** Its IC50 is 0.61 nM.

**Q.** What about the IC50 [3] of the same binder?
**A.** The IC50 was 1.3 nM.

**Q.** What about the EC50 [4] of the same binder?
**A.** The EC50 was 0.45 nM.

**Q.** What about the “EC50 (read off the curve)” value [5] of the same binder?
**A.** Its value is ~0.2 nM and ~0.3 nM.

**Q.** What about the IC50 [6] of the same binder?
**A.** Its IC50 is 0.7 nM.
